Experimental data taken from patent US9416178B2, “Jagged-binding agents and uses thereof” (OncoMed Pharmaceuticals, Inc., priority 2009, dated 2016).

What was measured:
[1] = test system: PN17 pancreatic tumor cells; assay: PN17 pancreatic tumor xenograft model; type: in vivo, NOD/SCID mice; conditions: antibody 15 mg/kg twice a week or gemcitabine 5 mg/kg once a week, intraperitoneally, FIG. 7
Protocol: PN17 pancreatic tumor cells were injected subcutaneously into the flanks of NOD/SCID mice. 10,000 cells were injected per animal. Mice were monitored weekly and tumors were allowed to grow until they were approximately 145 mm^3. The mice were randomized into four treatment groups (n=10 mice/group) and treated with either control antibody (LZ-1), anti-Jagged 64M51, gemcitabine or a combination of 64M51 and gemcitabine. Gemcitabine was administered intraperitoneally at a dose of 5 mg/kg once a week and antibodies were administered intraperitoneally at a dose of 15 mg/kg twice a week.

OMP-Lu45 cells = assay: Lu45 lung tumor xenograft model (Example 16); type: in vivo, NOD/SCID mice; conditions: FIG. 14; for reduction of tumor growth, antibody in combination with taxol relative to taxol alone: antibody 15 mg/kg twice a week plus taxol 15 mg/kg once a week
Protocol: The anti-tumor activity of antibodies 64R7, 133R0201, 133R0203, 133R0205 and 133R206 was evaluated in the lung Lu45 tumor xenograft model. Dissociated OMP-Lu45 cells (50,000 per animal) were injected subcutaneously into 6-8 week old male NOD/SCID mice. Tumor growth was monitored weekly and tumor measurements were initiated once tumors were palpable. On day 41, mice with average tumor volumes of 132 mm^3 were randomized into 10 groups of 10 animals each. Animals were injected with control antibody, antibody 64R7, antibody 133R0201, antibody 133R0203, antibody 133R0205, antibody 133R0206 (all at 15 mg/kg), taxol (15 mg/kg), a combination of antibody 64R7 and taxol, a combination of antibody 133R0203 and taxol, or a combination of antibody 133R0205 and taxol. Administration of the antibodies and taxol was performed via injection into the intra-peritoneal cavity, once a week for taxol and twice a week for antibodies. Tumors were measured twice a week and tumor volume was determined using the formula ½(a×b^2); where a=length, and b=breadth. Data are expressed as mean and mean±S.E.M. Group means were compared using Student's two-tailed, unpaired t test.

[2] = test system: human Jagged2-induced Notch activation; assay: Notch luciferase reporter assay, two cell population format; type: cell-based; conditions: Example 14; PC3 cells; antibody 50 to 0.2 μg/ml; FIG. 12A
From the text: (§1) The ability of Jagged antibodies to inhibit Jagged-induced Notch signaling was also investigated using a two cell population assay format. One population of human PC3 cells was transfected with an expression vector encoding a full-length Notch2 receptor as well as plasmids encoding a Notch-dependent firefly luciferase reporter construct (8×CBF luciferase) and a Renilla luciferase reporter (Promega, Madison Wis.) as an internal transfection control. A second population of human PC3 cells was transfected with an expression vector encoding a full-length cDNA for either hJagged1 or hJagged2. Aliquots of the two cell populations were mixed together and incubated overnight in the presence of 64M51, 64R7 or 64R1B antibodies that were serially diluted 1:4 from 40 to 0.039 μg/ml, luciferase levels were measured 18 hours later using a dual luciferase assay kit (Promega, Madison, Wis.) with firefly luciferase activity normalized to Renilla luciferase activity. Shown is a titration of 64M51, 64R1B and 64R7 antibodies in this assay.
(§2) The ability of Jagged antibodies 133R0201, 133R0203, 133R0205, 133R0207, 133R0208, 133R0209 and 133R0210 to inhibit Jagged-induced Notch signaling was investigated using a two cell population assay format as described above in Example 6. One population of human PC3 cells was transfected with an expression vector encoding a full-length Notch2 receptor as well as plasmids encoding a Notch-dependent firefly luciferase reporter construct (8×CBF luciferase) and a Renilla luciferase reporter (Promega, Madison Wis.) as an internal transfection control. A second population of human PC3 cells was transfected with an expression vector encoding a full-length cDNA for either hJagged1 or hJagged2. Aliquots of the two cell populations were mixed together and incubated overnight in the presence of antibodies 64R7, 133R0201, 133R0203, 133R0205, 133R0207, 133R0208, 133R0209 and 133R0210 that were serially diluted 1:3 from 50 to 0.2 μg/ml. Luciferase levels were measured 18 hours later using a dual luciferase assay kit (Promega, Madison, Wis.) with firefly luciferase activity normalized to Renilla luciferase activity. Shown in FIGS. 12A and 12B are titrations of the antibodies in this assay.

[3] = test system: human Jagged1-induced Notch2 activation; assay: as above; type: cell-based; conditions: Example 14; PC3 cells; antibody 50 to 0.2 μg/ml; FIG. 12B
From the text: as §1, §2

OMP-Lu42 cells = assay: Lu42 lung tumor xenograft model; type: in vivo, NOD/SCID mice; conditions: 15 mg/kg intraperitoneally twice a week, FIG. 13
Protocol: The anti-tumor activity of antibodies 64R7, 133R0203, and 133R0205 were evaluated in the lung Lu42 tumor xenograft model. Dissociated OMP-Lu42 cells (50,000 per animal) were injected subcutaneously into 6-8 week old male NOD/SCID mice. Tumor growth was monitored weekly and tumor measurements were initiated once tumors were palpable. On day 54, mice with average tumor volumes of 114 mm^3 were randomized into 4 groups of 10 animals each. Animals were injected with 15 mg/kg of either control antibody, antibody 64R7, antibody 133R0203, or antibody 133R0205. Administration of the antibodies was performed via injection into the intraperitoneal cavity, twice a week. Tumors were measured twice a week and tumor volume was determined using the formula ½(a×b^2); where a=length, and b=breadth. Data are expressed as mean and mean±S.E.M. Group means were compared using Student's two-tailed, unpaired t test.

Nc1ccn([C@@H]2O[C@H](CO)[C@@H](O)C2(F)F)c(=O)n1 [gemcitabine, reference compound]
tumor growth, single agent [1]: transient initial response

B1: 133R0201: 64R7 variant anti-Jagged antibody; heavy chain variable region SEQ ID NO:50, light chain variable region SEQ ID NO:21 (antibody, V domains shown)
VH: QVQLVESGGGVVQPGRSLRLSCAASGFTFSSYAMHWVRQAPGKGLEWVAAIYPDSSNKYYADSVKGRFTISRDNSKNTLYLQMNSLRAEDTAVYYCARDKYDIPDAFDIWGQGTLVTVS
VL: DIRMTQSPSSLSASVGDRVTITCRASQGISNDLAWYQQKPGKVPRLLIYATSTLQSGVPSRFSGSGSATDFTLTISSLQPEDVATYYCQQSYNAPITFGQGTRLEIK
modifications: 133R0201 Heavy chain variable region; 64R7 Light chain variable region
reduction in tumor growth, single agent compared to control antibody (OMP-Lu45 cells; 15 mg/kg twice a week): 24% | inhibition of human Jagged2-induced Notch activation, two cell population assay [2]: inhibitors | inhibition of human Jagged1-induced Notch activation, two cell population assay [3]: inhibitors

B2: 133R0203: 64R7 variant anti-Jagged antibody; heavy chain variable region SEQ ID NO:51, light chain variable region SEQ ID NO:21 (antibody, V domains shown)
VH: QVQLVESGGGVVQPGRSLRLSCAASGFTFSSYAMHWVRQAPGKGLEWVAAISPEASNKYYADSVKGRFTISRDNSKNTLYLQMNSLRAEDTAVYYCARDKYDIPDAFDIWGQGTLVTVS
VL: DIRMTQSPSSLSASVGDRVTITCRASQGISNDLAWYQQKPGKVPRLLIYATSTLQSGVPSRFSGSGSATDFTLTISSLQPEDVATYYCQQSYNAPITFGQGTRLEIK
modifications: 133R0203 Heavy chain variable region; 64R7 Light chain variable region
reduction of tumor growth, antibody in combination with taxol relative to taxol alone (OMP-Lu45 cells): 36% | reduction in tumor growth, single agent compared to control antibody (OMP-Lu42 cells): 28% | inhibition of human Jagged2-induced Notch activation, two cell population assay [2]: inhibitors | inhibition of human Jagged1-induced Notch activation, two cell population assay [3]: inhibitors

B3: 133R0205: 64R7 variant anti-Jagged antibody; heavy chain variable region SEQ ID NO:52, light chain variable region SEQ ID NO:21 (antibody, V domains shown)
VH: QVQLVESGGGVVQPGRSLRLSCAASGFTFSSYAMHWVRQAPGKGLEWVAAIYPASSNKYYADSVKGRFTISRDNSKNTLYLQMNSLRAEDTAVYYCARDKYDIPDAFDIWGQGTLVTVS
VL: DIRMTQSPSSLSASVGDRVTITCRASQGISNDLAWYQQKPGKVPRLLIYATSTLQSGVPSRFSGSGSATDFTLTISSLQPEDVATYYCQQSYNAPITFGQGTRLEIK
modifications: 133R0205 Heavy chain variable region; 64R7 Light chain variable region
reduction of tumor growth, antibody in combination with taxol relative to taxol alone (OMP-Lu45 cells): reduction of tumor growth | reduction in tumor growth, single agent compared to control antibody (OMP-Lu42 cells): 33% | inhibition of human Jagged2-induced Notch activation, two cell population assay [2]: inhibitors | inhibition of human Jagged1-induced Notch activation, two cell population assay [3]: inhibitors
